{"source": "the DeepSol protein solubility set", "data": [{"test": "soluble on expression in E. coli; label from the status in PepcDB or PDB records", "values": [{"sequence": "MASNEARYVLAEEVDFSSPEEVKNWWNSGTWQAEFGSPDIEWNGEVGNGALQLNVKLPGKSDWEEVRVARKFERLSECEILEYDIYIPNVEGLKGRLRPYAVLNPGWVKIGLDMNNANVESAEIITFGGKEYRRFHVRIEFDRTAGVKELHIGVVGDHLRYDGPIFIDNVRLYKRTGGM", "soluble on expression in E. coli": "soluble"}, {"sequence": "MTTNDTYEATYAIPMHCENCVNDIKACLKNVPGINSLNFDIEQQIMSVESSVAPSTIINTLRNCGKDAIIRGAGKPNSSAVAILETFQKYTIDQKKDTAVRGLARIVQVGENKTLFDITVNGVPEAGNYHASIHEKGDVSKGVESTGKVWHKFDEPIECFNESDLGKNLYSGKTFLSAPLPTWQLIGRSFVISKSLNHPENEPSSVKDYSFLGVIARSAGVWENNKQVCACTGKTVWEERKDALANNIK", "soluble on expression in E. coli": "soluble"}, {"sequence": "LQQFLDALASSPEKIEFETTMAVIEDNYDFTPAAFTNGNTQNDANENNGSCKIFAFGLLNALDKEATLACFGRFYREDVLLHPENNDHQNIRNFMVTGWEGIQFETSALTAK", "soluble on expression in E. coli": "not soluble"}, {"sequence": "MGTKLSVSLEGASTPETAPRVDRPPTFDPQYGFERPRKVREMKATWEEMEQWKLKPAQRDYCAHHLISLMKCQTQNAPFAGHACDGERGAWDKCEYDDHIMRIKEFERERRLLQRQARKEATA", "soluble on expression in E. coli": "not soluble"}, {"sequence": "MKSQFNQKLEDKFQRNAEQVVSLVKERMQLYENALWSSVAYIDADETDITHTKWLAYSKSLKIDLTYPGINGIGIIYNIQADQLDDYIEKQRVLRPNYAIHPSHNESEYWPITYVEPAAPNKKAIGLDMAFETNRYSSIKKARDTGVAQLTGPITLVQDAKKTPGFLFYTPFYKNGTKPESTEARRDAIDGVTYAPFIMKNLMQGTLAEKNRHVSIQIRDAGDLLFDDHDDESVLDADANPLFTKEQDISLYGRTWSFTIQSNLDFRDESAANQLEHHHHHH", "soluble on expression in E. coli": "not soluble"}, {"sequence": "DNARTNPLKDLEFFLHSFRGLLEKAPVVVGITKMDIRSQPGIDVYHKYLAKHNLNVPVFEIDARKEDDVKQLVSAMLFSIDPGLEV", "soluble on expression in E. coli": "not soluble"}, {"sequence": "MKHLFTRIFLFHLLLIGTVQVTAQNKKSGNPILPGFHADPEVLYSHQTKRYYIYPTSDGFPGWGGSYFKVFSSKNLKTWKEETVILEMGKNVSWANGNAWAPCIEEKKIDGKYKYFFYYSANPTTNKGKQIGVAVADSPTGPFTDLGKPIITSSPTGRGQQIDVDVFTDPVSGKSYLYWGNGYMAGAELNDDMLSIKEETTVVLTPKGGTLQTYAYREAPYVIYRKGIYYFFWSVDDTGSPNYHVVYGTAQSPLGPIEVAKEPIVLIQNPKEEIYGPAHNSILQVPGKDKWYIVYHRINKNHLNDGPGWHREVCIDRMEFNPDGTIKQVIPTP", "soluble on expression in E. coli": "not soluble"}, {"sequence": "MSLSQSLWQRLFNHRQQTKQAVLILGSGRSGTSVMTKCVNLMGISLGTDNLLAPSKRINPKGYFENKDVINIHKSLGSRIRYRPAFKDYYDSPKIKKDRAALTTYLRNFFENEQYLAIKDPRMNDYIELWQRVLADVEVQPAEIVLLRNPMDVVNSNERAWHRDTTLAMRQWQVRTLLSLRDTDREHRILVTYEDLFGQTLTTLKRIATQFNLPWTSDEAALQAQIDDFIDPALQKSDSGENLADFEARTDVKPDVKALYLLGRQAAADPDYFASAEFQQRIDEMTDEYLAKYGALYRDFNEGHHHHHH", "soluble on expression in E. coli": "soluble"}, {"sequence": "SLKKILILDDETSVLNALQRQLIRNNWQVISFKHPATALDYAKHVFFPIVITDYRMPQMSGVEFLLEFQKLQPYAYKIMLSGQAGEYGMTEAINQAKIDYFIHKPWDNCQLLNQIDKGLNHYRQTIKHLLKTNSKRMSREDYLIWYEKLVEQACPSITKVKKNPLGWIEAEEG", "soluble on expression in E. coli": "not soluble"}, {"sequence": "MFFCTILSFFDFGRYFMEKNQYEIYHENKKHTPNDFPYNTYLCSIPLDFKSVNLHWHNEVELIVIKKGQGLVNVNLVTYTVNAGDVVFVFPGQLHSISQKDYSIMEYENILFKSSLLKSSGYDLCNDKFIQPLLSGNLNIYPVINSNFDFHDSLYSLINEIDKLCDKRPYAYQLAVKSYLFQIFYLLISNCGLNQIKPISKKALEK", "soluble on expression in E. coli": "not soluble"}, {"sequence": "MTELDQFWPACLARLEAELSSQQFNTWIKPLTAEAGDEGIALFAPNRFIMQFIKDRFLPRIEELAVELVGELPVELRLGAPTARPAAPVAGNSQPKAKEPAKAAASAPAAPSPAKQAAVKAIGGSHESTRLNPSFTFDTLVTGKGNQLARAAAMQIAENPGDQAYNPLFVYGGVGLGKTHLIQAIGNHVFQKNPQAKIRYIHAERYVADIMRAYQHKAFDEFKRYYHSLDLLLIDDIQFFAGKNRTQEEFFYAFNALIEGGKQVIMTCDSYPKQIEGMEERLISRFSWGLTVEIQPPELEMRVAILMKKAEADSIKLEHNVAFFIAQNVRSNVRELEGALKRVVAYARFTSQNITLELVKEALKDILAAGNRQVTVDAIQKTVAEYYKIKLSDMHSKKRSRDIARPRQVAMALAKELTQLSLPNIGDAFGGRDHTTVLHACKTITEMRASDADIAHDYEALLSMLRNLEHHHHHH", "soluble on expression in E. coli": "not soluble"}, {"sequence": "MTIGQKNTNIDPRFPHHHPRPQSFWEARAKALESLLIEKGHLSSDAIERVIKHYEHELGPMNGAKVVAKAWTDPAFKQRLLEDSETVLRELGYYGLQGEHIRVVENTDTVHNVVVCTLCSCYPWPLLGLPPSWYKEPAYRARVVKEPRQVLKEFGLDLPDSVEIRVWDSSSEIRFMVLPQRPEGTEGMTEEELAKLVTRDSMIGVAKIEPPKVTVG", "soluble on expression in E. coli": "soluble"}, {"sequence": "TRVYDESGKEVGKLFGQKGTFVELDNISPYIQDAVISTEDRGFYQHKGYSIKGIARAVVGKLTFGKIGGGGGGSTITQQLAKNAYLTQEQTLDRKARELFLAIEIEKKYSKKDILAMYLNNSYFGNGVWGVQDAARKYFGVDASQVTVGEAATLAGMLKGPGIYNPIDYI", "soluble on expression in E. coli": "not soluble"}, {"sequence": "MDPNKFREKEISKKEALELFEDNEIIFELFKFADSLRREEVGDIVTYVVNRNINFTNICVGNCRFCAFRANENDKHAYFLDIDEIAKRAVEAKKFGCTEVCIQGGLHPKIDTYYQAEILKAVHEATKPYGDIHIHAFSPMEVYFGAENAGLDIKEALKILKENGLNSMPGTAAEILDDDIRAELCPNKIKTKEWIYIIKEAHKLGIPTTATMMYGHIEEYKHWVNHLFIIKEIQEETNGFTEFVPLSFMHKYAPIYKEGKAKAGATGIEDLKVFAVSRIIFKGLIKNIQASWVKLGKKMVQVALRCGANDVGGTLIEESISRSAGAEHGVYMSVEEIRDMIKRVGLIPKERTTLYKILE", "soluble on expression in E. coli": "not soluble"}, {"sequence": "MSEITIGVLSLQGDFEPHINHFIKLQIPSLNIIQVRNVHDLGLCDGLVIPGGESTTVRRCCAYENDTLYNALVHFIHVLKKPIWGTCAGCILLSKNVENIKLYSNFGNKFSFGGLDITICRNFYGSQNDSFICSLNIISDSSAFKKDLTAACIRAPYIREILSDEVKVLATFSHESYGPNIIAAVEQNNCLGTVFHPELLPHTAFQQYFYEKVKNYKYSLEHHHHHH", "soluble on expression in E. coli": "soluble"}, {"sequence": "MTYGVISWWDYGHWIEAVAHRMPIANPFQAGIGNKYNNVPGASSFFTAENESYAEFVAEKLNVKYVVSDIEMETGKYYAMAVWAEGDLPLAEKYYGGYFYYSPTGTFGYANSQWDIPLNSIIIPLRIPSELYYSTMEAKLHLFDGSGLSHYRMIYESDYPAEWKSYSSQVNLNNESQVLQTALYEAVMRARYGVSPTLEHHHHHH", "soluble on expression in E. coli": "not soluble"}, {"sequence": "MTAMLSMACRRAVRAGAHCDEGGHVKAFDYPDSMNNKPVPIVLRRTSIGLILFILPAMLIGCSRVPVKTQPKPASVNVWPLTTPANPEAANEVVMRALSLVGTPYRFGGNTPESGFDCSGLVSYVYRDALDLRLPRTSYELAAVQGPKIDAEQLTTGDLVFFGSARSVTHVGIYLSEGRFVHAPSSGGTVRLDRLDTPYWRDHYTGAKRVLRIIEAKVSMVFTDKCHLTFTHYGEESAQAALHTYFNIGDINQVEVQGLPETCFNSLNQQQENVPSPRHISENVDCIYSAENMQNQILDKSFNRTIALHHHNASQFVLWNPWHKKTSGMSETGYQKMLCLETARIHHLLEFGESLSVEISLKG", "soluble on expression in E. coli": "soluble"}, {"sequence": "MGSDKIHHHHHHMDDIPALMRSLQLKRKPLMVCSGGTTSRCAAEGHWTLDLRQSCRQIHFDPSTQHVEIGAGQTMESLLRELAKHGRSFPTGLSGLPGLGYILNGGISPLSRSQGLAIDQILEIKGVWGDGESFVLSKPEAACCSEDQLAWRGLCGAAPFLAVITDLKLQTHLLQPLRIWQSNLTFEQLLELIHQAESWPDSLSLQWIWGDEVHAYGVLLSADAAAVATFNQLQKTTLCTNVVEIDDVAGIHELPPFALPVVSNAAIGRCHSEVVALLGPAWGSGCQGVITALAELMAERPDPRCSLAVQQLGGVASRQRKDVSSLIHREAIWKPWITAAWPAGDSHIRALSLNWLEKVWATLEPYCAGVHLAQMHPHLPWHQRELKAAFGEWLPGLQELKARHDPNGILPSL", "soluble on expression in E. coli": "not soluble"}, {"sequence": "VNDNQLAPVARPRSPLELLDTVPDSLLRRLKQYSGRLATEAVSAMQERLPFFADLEASQRASVALVVQTAVVNFVEWMHDPHSDVGYTAQAFELVPQDLTRRIALRQTVDMVRVTMEFFEEVVPLLARSEEQLTALTVGILKYSRDLAFTAATAYADAAEARGTWDSRMEASVVDAVVRGDTGPELLSRAAALNWDTTAPATVLVGTPAPGPNGSNSDGDSERASQDVRDTAARHGRAALTDVHGTWLVAIVSGQLSPTEKFLKDLLAAFADAPVVIGPTAPMLTAAHRSASEAISGMNAVAGWRGAPRPVLARELLPERALMGDASAIVALHTDVMRPLADAGPTLIETLDAYLDCGGAIEACARKLFVHPNTVRYRLKRITDFTGRDPTQPRDAYVLRVAATVGQLNYPTPH", "soluble on expression in E. coli": "not soluble"}, {"sequence": "MAHHHHHHMCDPLVERFISDIIRDPQAWKRAVTSPDNRCCLLPTSNVIRSLAGPLFRRGCVDNVSSLRFLTTLRRDTLSGGNVQRVSMKRKDLRGPWDHRTRVSEEDQPNILIQLLVRQLERNGFGTSYRKAVYSLLGKQVKEMSKKKRQHDAAATAKTMKLNARRIEHLLMEEYNERKKTCDREGRRRQALVRGFFNKASVVVENEEFIGRRTIFQDALDECFAIKTLMEGETQKLTGIPPEHQRNYFAIQQKEKHERECLLARFETQRRAIYLQLQHDIKNSIKSEIRRIMRREKHIEELYKKHGCGK", "soluble on expression in E. coli": "not soluble"}, {"sequence": "MAHHHHHHMQFGPVVSEAEIRTVQDGIANGVRSDGRSLTQRRPFTVVTNRGSTTHFEGSSVEVHCDGTTVVAAATPSVVELDIDRGQAPRGSLFVNIDAVPAVVEHYAQSVRNNSARYRQAFLSFLATAIRQTFGAQGVTAEERQQQLGIAEAEIIADEGDDEQREDAFGGRGAAEEKPVEETAEQRVDCCGFPGEQLYIGGGYAFRIDVDAHVLQAHGGSLASIVALAVHAALKTVRLPSVTLHEASAGFSLEVNYSKPYATAVNWSRLPVLSVVHVSPTRHYVVDPTRLEELALPQQLRVAVNSFGQVFHMRFQQLPSRRGNAMRLIRSPREEAGKDNSNDNSERDVDGDDVDDSSRRGFDAGVKGTVGGMNMPDMAAVLHAAVHISQAVIAECDEALAGSSG", "soluble on expression in E. coli": "not soluble"}, {"sequence": "MAHHHHHHMIENLQNCKKLRLLELGYNKIRMIENIEHLTNLEELWLGKNKIEQINLPYLPKLKKLSVQHNRLTDICEKSIKNILCVEELYISYNKINHIIDTFKDLKHLKVFDLSYNEINNISICSYLKSLEELWLNNNNIDNLEMIKKLSTIENLKTLYLEKNKIQDNLKENYRKTIIHILPQLKQLDALPIPSSPTLQK", "soluble on expression in E. coli": "not soluble"}]}]}
